In one assay the target is GST:CcmC(W^5A/D126A) (UniProt P0ABM1). In words: pull-down.
The target of the next assay is GST:CcmC(H60A/H184A) (UniProt P0ABM1). In words: pull-down.

Where only a bound is given, the exact number is not on record here.

On to “CcmE (from UniProt P69490 30-159) (natural protein)”, for which, in the assay with GST:CcmC(W^5A/D126A), the % CcmE bound with heme is less than 4% and the % holoCcmE bound with heme is less than 3%. In the assay with GST:CcmC(H60A/H184A), this substance gave a % CcmE bound with heme of less than 4% and a % holoCcmE bound with heme of less than 3%.

(Values after publication PMC3580838.)
